Assay results: patent publication US20140274782A1, “AFFINITY REAGENTS AND METHODS FOR DETECTION, PURIFICATION, AND PROTEOMIC ANALYSIS OF METHYLATED PROTEINS” (The Board of Trustees of the Leland Stanford Junior …, priority 2013, published 2014)

T1: G9a and GLP (Homo sapiens, UniProt Q96KQ7+Q9H9B1)
T1 sequence (Q96KQ7 2-1210 limits assumed): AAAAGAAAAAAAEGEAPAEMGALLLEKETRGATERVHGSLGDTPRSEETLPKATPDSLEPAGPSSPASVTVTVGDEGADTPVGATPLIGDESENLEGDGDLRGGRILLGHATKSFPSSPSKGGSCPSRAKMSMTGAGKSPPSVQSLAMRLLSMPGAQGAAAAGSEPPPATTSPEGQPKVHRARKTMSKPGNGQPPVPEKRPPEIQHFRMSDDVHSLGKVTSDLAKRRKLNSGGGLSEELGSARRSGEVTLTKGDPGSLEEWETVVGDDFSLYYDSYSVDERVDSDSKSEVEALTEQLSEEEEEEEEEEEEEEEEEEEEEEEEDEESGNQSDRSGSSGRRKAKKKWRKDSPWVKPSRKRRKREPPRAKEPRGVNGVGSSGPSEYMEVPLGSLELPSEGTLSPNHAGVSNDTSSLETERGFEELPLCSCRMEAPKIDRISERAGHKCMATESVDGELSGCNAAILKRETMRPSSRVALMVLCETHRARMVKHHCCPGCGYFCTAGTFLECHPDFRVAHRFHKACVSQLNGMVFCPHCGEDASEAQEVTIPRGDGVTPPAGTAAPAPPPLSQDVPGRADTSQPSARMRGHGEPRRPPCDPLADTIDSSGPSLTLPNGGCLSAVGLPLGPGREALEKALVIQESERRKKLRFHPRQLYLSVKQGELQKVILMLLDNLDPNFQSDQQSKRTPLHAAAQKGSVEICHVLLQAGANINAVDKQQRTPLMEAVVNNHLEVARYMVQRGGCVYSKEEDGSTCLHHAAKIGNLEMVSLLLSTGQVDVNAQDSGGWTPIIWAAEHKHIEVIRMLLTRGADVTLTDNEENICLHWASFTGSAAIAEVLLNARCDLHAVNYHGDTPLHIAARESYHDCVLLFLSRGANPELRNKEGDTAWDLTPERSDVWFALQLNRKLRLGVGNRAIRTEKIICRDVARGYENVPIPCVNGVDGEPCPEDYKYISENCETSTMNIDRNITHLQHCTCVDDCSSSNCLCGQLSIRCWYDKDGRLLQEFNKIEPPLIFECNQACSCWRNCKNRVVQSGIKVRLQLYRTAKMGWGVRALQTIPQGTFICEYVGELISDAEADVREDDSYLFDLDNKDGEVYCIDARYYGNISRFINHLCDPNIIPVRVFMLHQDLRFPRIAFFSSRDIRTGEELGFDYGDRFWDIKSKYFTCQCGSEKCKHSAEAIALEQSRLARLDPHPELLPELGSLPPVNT
T1 sequence (Q9H9B1 2-1298 limits assumed): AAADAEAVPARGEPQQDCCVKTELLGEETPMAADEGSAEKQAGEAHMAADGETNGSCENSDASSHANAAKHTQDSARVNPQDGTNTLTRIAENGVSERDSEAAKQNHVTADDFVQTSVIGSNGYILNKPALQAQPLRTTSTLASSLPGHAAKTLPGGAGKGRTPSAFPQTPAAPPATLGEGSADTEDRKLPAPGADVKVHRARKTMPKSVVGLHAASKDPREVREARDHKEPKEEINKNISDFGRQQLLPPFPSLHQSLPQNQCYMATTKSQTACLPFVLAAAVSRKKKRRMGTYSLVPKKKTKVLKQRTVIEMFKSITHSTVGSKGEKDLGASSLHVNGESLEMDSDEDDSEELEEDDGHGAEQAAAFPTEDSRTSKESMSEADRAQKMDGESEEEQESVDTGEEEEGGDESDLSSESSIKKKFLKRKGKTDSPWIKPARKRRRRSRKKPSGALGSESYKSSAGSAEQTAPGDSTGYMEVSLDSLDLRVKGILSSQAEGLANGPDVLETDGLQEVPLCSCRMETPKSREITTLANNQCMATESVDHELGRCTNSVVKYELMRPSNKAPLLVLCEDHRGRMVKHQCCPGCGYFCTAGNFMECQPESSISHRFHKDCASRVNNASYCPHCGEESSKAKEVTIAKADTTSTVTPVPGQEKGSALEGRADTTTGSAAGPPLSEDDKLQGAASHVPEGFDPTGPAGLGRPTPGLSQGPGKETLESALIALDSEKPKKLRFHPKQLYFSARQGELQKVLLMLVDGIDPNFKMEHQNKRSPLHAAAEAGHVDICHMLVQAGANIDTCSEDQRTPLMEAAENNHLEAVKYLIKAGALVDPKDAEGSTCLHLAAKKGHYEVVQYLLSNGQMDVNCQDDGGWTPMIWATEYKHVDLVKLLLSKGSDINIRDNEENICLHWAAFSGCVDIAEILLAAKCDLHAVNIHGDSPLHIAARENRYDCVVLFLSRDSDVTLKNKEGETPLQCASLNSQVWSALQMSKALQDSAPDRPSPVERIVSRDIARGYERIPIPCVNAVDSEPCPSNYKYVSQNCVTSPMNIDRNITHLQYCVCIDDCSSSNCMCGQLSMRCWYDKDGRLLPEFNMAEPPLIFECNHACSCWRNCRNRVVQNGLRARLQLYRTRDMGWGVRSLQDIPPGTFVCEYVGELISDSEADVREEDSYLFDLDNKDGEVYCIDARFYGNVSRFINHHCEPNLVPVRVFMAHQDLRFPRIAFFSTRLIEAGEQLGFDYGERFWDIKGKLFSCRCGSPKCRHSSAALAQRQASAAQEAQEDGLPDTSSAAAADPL

B1: MCM5 (protein, UniProt P33992 2-734, looked up)
DNA replication licensing …: SGFDDPGIFYSDSFGGDAQADEGQARKSQLQRRFKEFLRQYRVGTDRTGFTFKYRDELKRHYNLGEYWIEVEMEDLASFDEDLADYLYKQPAEHLQLLEEAAKEVADEVTRPRPSGEEVLQDIQVMLKSDASPSSIRSLKSDMMSHLVKIPGIIIAASAVRAKATRISIQCRSCRNTLTNIAMRPGLEGYALPRKCNTDQAGRPKCPLDPYFIMPDKCKCVDFQTLKLQELPDAVPHGEMPRHMQLYCDRYLCDKVVPGNRVTIMGIYSIKKFGLTTSRGRDRVGVGIRSSYIRVLGIQVDTDGSGRSFAGAVSPQEEEEFRRLAALPNVYEVISKSIAPSIFGGTDMKKAIACLLFGGSRKRLPDGLTRRGDINLLMLGDPGTAKSQLLKFVEKCSPIGVYTSGKGSSAAGLTASVMRDPSSRNFIMEGGAMVLADGGVVCIDEFDKMREDDRVAIHEAMEQQTISIAKAGITTTLNSRCSVLAAANSVFGRWDETKGEDNIDFMPTILSRFDMIFIVKDEHNEERDVMLAKHVITLHVSALTQTQAVEGEIDLAKLKKFIAYCRVKCGPRLSAEAAEKLKNRYIIMRSGARQHERDSDRRSSIPITVRQLEAIVRIAEALSKMKLQPFATEADVEEALRLFQVSTLDAALSGTLSGVEGFTSQEDQEMLSRIEKQLKRRFAIGSQVSEHSIIKDFTKQKYPEHAIHKVLQLMLRRGEIQHRMQRKVLYRLK
B2: GAPDHS (protein, UniProt O14556 1-408, looked up)
Glyceraldehyde-3-phosphate …: MSKRDIVLTNVTVVQLLRQPCPVTRAPPPPEPKAEVEPQPQPEPTPVREEIKPPPPPLPPHPATPPPKMVSVARELTVGINGFGRIGRLVLRACMEKGVKVVAVNDPFIDPEYMVYMFKYDSTHGRYKGSVEFRNGQLVVDNHEISVYQCKEPKQIPWRAVGSPYVVESTGVYLSIQAASDHISAGAQRVVISAPSPDAPMFVMGVNENDYNPGSMNIVSNASCTTNCLAPLAKVIHERFGIVEGLMTTVHSYTATQKTVDGPSRKAWRDGRGAHQNIIPASTGAAKAVTKVIPELKGKLTGMAFRVPTPDVSVVDLTCRLAQPAPYSAIKEAVKAAAKGPMAGILAYTEDEVVSTDFLGDTHSSIFDAKAGIALNDNFVKLISWYDNEYGYSHRVVDLLRYMFSRDK
B3: PRMT3 (protein, UniProt O60678 2-531, looked up)
Protein arginine …: CSLASGATGGRGAVENEEDLPELSDSGDEAAWEDEDDADLPHGKQQTPCLFCNRLFTSAEETFSHCKSEHQFNIDSMVHKHGLEFYGYIKLINFIRLKNPTVEYMNSIYNPVPWEKEEYLKPVLEDDLLLQFDVEDLYEPVSVPFSYPNGLSENTSVVEKLKHMEARALSAEAALARAREDLQKMKQFAQDFVMHTDVRTCSSSTSVIADLQEDEDGVYFSSYGHYGIHEEMLKDKIRTESYRDFIYQNPHIFKDKVVLDVGCGTGILSMFAAKAGAKKVLGVDQSEILYQAMDIIRLNKLEDTITLIKGKIEEVHLPVEKVDVIISEWMGYFLLFESMLDSVLYAKNKYLAKGGSVYPDICTISLVAVSDVNKHADRIAFWDDVYGFKMSCMKKAVIPEAVVEVLDPKTLISEPCGIKHIDCHTTSISDLEFSSDFTLKITRTSMCTAIAGYFDIYFEKNCHNRVVFSTGPQSTKTHWKQTVFLLEKPFSVKAGEALKGKVTVHKNKKDPRSLTVTLTLNNSTQTYGLQ
B4: SEC23A (protein, UniProt Q15436 2-765, looked up)
Protein transport protein …: TTYLEFIQQNEERDGVRFSWNVWPSSRLEATRMVVPVAALFTPLKERPDLPPIQYEPVLCSRTTCRAVLNPLCQVDYRAKLWACNFCYQRNQFPPSYAGISELNQPAELLPQFSSIEYVVLRGPQMPLIFLYVVDTCMEDEDLQALKESMQMSLSLLPPTALVGLITFGRMVQVHELGCEGISKSYVFRGTKDLSAKQLQEMLGLSKVPLTQATRGPQVQQPPPSNRFLQPVQKIDMNLTDLLGELQRDPWPVPQGKRPLRSSGVALSIAVGLLECTFPNTGARIMMFIGGPATQGPGMVVGDELKTPIRSWHDIDKDNAKYVKKGTKHFEALANRAATTGHVIDIYACALDQTGLLEMKCCPNLTGGYMVMGDSFNTSLFKQTFQRVFTKDMHGQFKMGFGGTLEIKTSREIKISGAIGPCVSLNSKGPCVSENEIGTGGTCQWKICGLSPTTTLAIYFEVVNQHNAPIPQGGRGAIQFVTQYQHSSGQRRIRVTTIARNWADAQTQIQNIAASFDQEAAAILMARLAIYRAETEEGPDVLRWLDRQLIRLCQKFGEYHKDDPSSFRFSETFSLYPQFMFHLRRSSFLQVFNNSPDESSYYRHHFMRQDLTQSLIMIQPILYAYSFSGPPEPVLLDSSSILADRILLMDTFFQILIYHGETIAQWRKSGYQDMPEYENFRHLLQAPVDDAQEILHSRFPMPRYIDTEHGGSQARFLLSKVNPSQTHNNMYAWGQESGAPILTDDVSLQVFMDHLKKLAVSSAA

Experiments:
G9a and GLP = target: T1, G9a and GLP; test: Triple SILAC pull-down after UNC0638 treatment of 293T cells, DMSO/UNC0638 ratio of protein captured by 3×MBT; format: cell-based; parameters: cells were treated for 24 hours with UNC0638 at 2.5 μM or DMSO vehicle control; endogenous in cells; host or cells: HEK 293T; details: for Relative to UNC0638 UNC Heavy: UNC0638 in heavy SILAC media; for Relative to UNC0638 UNC Light: UNC0638 in light SILAC media; for Relative to UNC0638 Average: average of UNC Light and UNC Heavy experiments;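 for all read-outs here: mass spectrometry (Q-Exactive) SILAC quantitation, DMSO/UNC0638 ratio computed after subtracting 3×MBTD355N mutant pull-down background, only proteins with at least twofold 3×MBT over mutant signal considered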
Procedure: For UNC0638 treatments cells were treated for 24 hours with UNC0638 at 2.5 μM or DMSO vehicle control. One experiment treated cells in light media with UNC0638, the other treated cells in heavy media. Both experiments included cells in medium media treated with DMSO for negative control pull-down with 3×MBTD355N.
UNC0638 treatment experiments used a Q-Exactive mass spectrometer (ThermoFisher Scientific). A 25 cm HPLC column with 3 μm Reliasil (Orochem) was used to separate peptides over a 4 hour gradient from 0 to 75% acetonitrile. Ions were generated using a custom nanospray source flowing at 250 nL/minute. Mass spectrometry settings were 70,000 MS1 resolution, data dependent selection of up to 20 precursor ions per cycle, dynamic exclusion of 30 seconds and isolation window of 2 m/z.
For UNC0638 experiments the treated vs. untreated ratio was determined by subtracting the value from 3×MBTD355N prior to dividing values from the light and heavy channels. Only proteins showing a two-fold signal to background ratio (3×MBT/3×MBTD355N) were evaluated as potential G9a/GLP substrates.

3×MBT domain of L3MBTL1 = test: Triple SILAC pull-down, 3xMBT/3xMBTD355N ratio (cytoplasmic, nuclear and chromatin fractions of 293T cells); format: binding, human; details: for 3xMBT/D355N UNC Heavy: experiment with UNC0638 in heavy SILAC media; for 3xMBT/D355N UNC Light: experiment with UNC0638 in light SILAC media;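 for all read-outs here: proteins quantified with MaxQuant, requiring at least two unique peptides and quantification in both label directions, normalized to the mean of proteins from a digested loading control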
[1] = SILAC ratio DMSO relative to UNC0638, pull-down with 3xMBT, all values in log base 2
[2] = SILAC ratio 3xMBT vs 3xMBTD355N pull-down, 293T cells, all values in log base 2
[3] = SILAC ratio DMSO/UNC0638 of protein pulled down with 3xMBT
[4] = SILAC ratio, pull-down 3xMBT vs 3xMBTD355N

| Molecule | Relative to UNC0638 UNC Heavy (G9a and GLP; [1]) | Relative to UNC0638 UNC Light (G9a and GLP; [1]) | Relative to UNC0638 Average (G9a and GLP; all values in log base 2) | 3xMBT/D355N UNC Heavy (3×MBT domain of L3MBTL1; [2]) | 3xMBT/D355N UNC Light (3×MBT domain of L3MBTL1; [2]) | Relative to UNC0638 UNC Heavy (G9a and GLP; [3]) | Relative to UNC0638 UNC Light (G9a and GLP; [3]) | Relative to UNC0638 Average (G9a and GLP) | 3xMBT/D355N UNC Heavy (3×MBT domain of L3MBTL1; [4]) | 3xMBT/D355N UNC Light (3×MBT domain of L3MBTL1; [4]) |
| --- | --- | --- | --- | --- | --- | --- | --- | --- | --- | --- |
| B1 | 0.18 log base 2 | 0.03 log base 2 | 0.10 log base 2 | 2.23 log base 2 | 2.79 log base 2 |  |  |  |  |  |
| B2 |  |  |  |  |  | 3.21 log base 2 | −2.20 log base 2 | 0.50 log base 2 | 3.31 log base 2 | 1.73 log base 2 |
| B3 | 0.13 log base 2 | 0.07 log base 2 | 0.10 log base 2 | 1.71 log base 2 | 2.05 log base 2 |  |  |  |  |  |
| B4 | 0.22 log base 2 | −0.01 log base 2 | 0.11 log base 2 | 2.56 log base 2 | 3.17 log base 2 |  |  |  |  |  |
